# Reference: publication PMC9959560
# B1: SF-B4GALNT2: N77Q (protein)
# parent chain: MTSGGSRFLWLLKILVIILVLGIVGFMFGSMFLQAVFSSPKPELPSPAPGVQKLKLLPEERLRNLFSYDGIWLFPKNQCKCEANKEQGGYNFQDAYGQSDLPAVKARRQAEFEHFQRREGLPRPLPLLVQPNLPFGYPVHGVEVMPLHTVPIPGLQFEGPDAPVYEVTLTASLGTLNTLADVPDSVVQGRGQKQLIISTSDRKLLKFILQHVTYTSTGYQHQKVDIVSLESRSSVAKFPVTIRHPVIPKLYDPGPERKLRNLVTIATKTFLRPHKLMIMLRSIREYYPDLTVIVADDSQKPLEIKDNHVEYYTMPFGKGWFAGRNLAISQVTTKYVLWVDDDFLFNEETKIEVLVDVLEKTELDVVGGSVLGNVFQFKLLLEQSENGACLHKRMGFFQPLDGFPSCVVTSGVVNFFLAHTERLQRVGFDPRLQRVAHSEFFIDGLGTLLVGSCPEVIIGHQSRSPVVDSELAALEKTYNTYRSNTLTRVQFKLALHYFKNHLQCAA
# Legend:
# [1] = anti-FLAG WB normalised to β-actin, HeLa; details: glycan lost; control: wild-type SF
# [2] = WB of culture media, HeLa (data not shown); details: glycan lost; control: wild-type SF
# [3] = anisomycin chase 2-10 h, anti-FLAG WB, HeLa; details: glycan lost; control: wild-type SF
# [4] = non-reducing SDS-PAGE and WB, dimer fraction, HeLa; details: glycan lost; control: wild-type SF
# [5] = anti-Sda KM694 WB of HeLa glycoproteins, normalised; details: glycan lost; control: wild-type SF
# [6] = confocal colocalisation with TMEM165 and Calnexin, HeLa; details: glycan lost; control: wild-type SF-eGFP
# [7] = UDP-[3H]GalNAc transfer to fetuin, COS-7 lysates, normalised; details: glycan lost; control: wild-type SF
protein,measurement,setting,value
B1,expression_or_secretion,[1],decreases
same,expression_or_secretion,[2],no change
same,degradation_or_half_life,[3],increases
same,oligomerisation,[4],decreases
same,enzymatic_activity,[5],no change
same,localisation_or_trafficking,[6],changes
same,enzymatic_activity,[7],decreases
